# Assay results reported in US20220323445A1, “REDUCING IMMUNOGENICITY TO PEGLOTICASE” (Horizon Therapeutics Ireland DAC, priority 2020, published 2022).
# Test system: serum uric acid (sUA)
# Experiment: Serum uric acid (sUA) levels and sUA responders, open-label study of pegloticase with MTX (NCT03635957)
# Format: in vivo, human
# Procedure: The primary objective is to estimate the response rate during Month 6 (Weeks 20, 22, and 24), as measured by the sustained normalization of serum uric acid (SUA) to <6 mg/dL for at least 80% of the time during Month 6 in subjects receiving KXX with MTX.
# The primary efficacy outcome endpoint is the sustained normalization of SUA to <6 mg/dL for at least 80% of the time during month 6 (weeks 20, 22, and 24) in subjects receiving KXX with MTX. This is slightly below the urate solubility threshold and this threshold has been the accepted standard for nearly all modern gout trials. Participants who achieve this endpoint were classified as “responders.” Serum uric acid (SUA) responders may also be defined as participants achieving and maintaining SUA <6 mg/dL for at least 80% of the time during Month 6 (Weeks 20, 22, and 24).
# Blood samples may be collected prior to each pegloticase infusion for measurement of SUA levels using the Beckman Coulter AU System Uric Acid procedure. Participants were declared “non-responders” if there were SUA measures >6 mg/dL at 2 consecutive study visits beginning with the week 2 visit. […] If the SUA goal is not maintained before or at the 12-week mark, it was assumed that the participant had developed clinically relevant anti-pegloticase antibody and they received no further infusions. This assumption and subsequent discontinuation of pegloticase was consistent with the protocol of large phase III randomized controlled trials and the product label. A formal stopping rule was 2 occasions of SUA levels of greater than 6 mg/dL.
# Clinical Chemistry—Blood samples were collected prior to each pegloticase infusion for measurement of SUA levels (primary efficacy parameter) using the Beckman Coulter AU System Uric Acid procedure. In this procedure uric acid is converted to hydrogen peroxide. Hydrogen peroxide reacts with reagent to produce a chromophore which is read bichromatically at 660/800 nm. The amount of dye formed is proportional to the uric acid concentration in the sample.
# Serum samples for measurement of SUA levels were collected at the Screening Visit, the Week −4 Visit (prior to the first dose of MTX), and the Week −2 Visit during the MTX Run-in Period; within 48 hours prior to each pegloticase infusion and after the end of each pegloticase infusion prior to discharge from the site during the Pegloticase+IMM Period; at the non-infusion Week 52/End of Study/Early Termination Visits and at the Post Treatment 3 and 6 Month Follow-up Visits. Additional serum samples for SUA levels were collected at optional non-infusion (Frequent Sampling) Visits at Weeks 1 and 7. […] Subjects with SUA level >6 mg/dL at 2 consecutive visits beginning at Week 2 visit discontinued treatment, completed the End of Pegloticase Infusion Visit procedures within 2 weeks and continued the subject visits according to the protocol (without treatment).
# Efficacy analyses were performed using the modified intention-to-treat (mITT) population, defined as all enrolled subjects who received ≥1 dose of pegloticase. The proportion of Month 6 responders was summarized, along with a 95% confidence interval for the proportion. The proportion of Month 3 and overall (Months 3 and 6 combined) responders was analyzed similarly.
# A subject was declared a non-responder if the subject had SUA level >6 mg/dL at 2 consecutive study visits beginning with the Week 2 Visit. In addition, a subject who withdraws from study treatment for any reason after the first dose of pegloticase in the KXX+MTX Period and prior to Month 6 (for the primary endpoint) or Month 3 (for the secondary endpoint) was considered a non-responder if SUA values were not collected at the planned time points.
# Patients were administered oral MTX (15 mg/week) and folate (1 mg/day) 4 weeks prior to the first pegloticase infusion (Day 1) and throughout the pegloticase treatment period. […]
# [1] = Week 24 - Pre-Infusion, mITT, n=11
# [2] = Week 26 - Pre-Infusion, Month 6 sUA Responders
# [3] = Week 26 - Pre-Infusion, mITT, n=8
# [4] = Week 28 - Pre-Infusion, Month 6 sUA Responders
# [5] = Week 28 - Pre-Infusion, mITT, n=8
# [6] = Week 30 - Pre-Infusion, Month 6 sUA Responders
# [7] = Week 30 - Pre-Infusion, mITT, n=8
# [8] = Week 32 - Post-Infusion, Month 6 sUA Responders
# [9] = Week 32 - Post-Infusion, mITT, n=8
# [10] = Week 32 - Pre-Infusion, Month 6 sUA Responders
# [11] = Week 32 - Pre-Infusion, mITT, n=10
# [12] = Week 34 - Post-Infusion, Month 6 sUA Responders
# [13] = Week 34 - Post-Infusion, mITT, n=8
molecule,measurement,setting,value
"pegloticase (protein, monomethoxy PEG conjugated; Krystexxa Sequence, covalent conjugate of uricase produced by a genetically modified strain of Escherichia coli and monomethoxypoly (ethylene glycol)) TYKKNDEVEFVRTGYGKDMIKVLHIQRDGKYHSIKEVATTVQLTLSSKKDYLHGDNSDVIPTDTIKNTVNVLAKFKGIKSIETFAVTICEHFLSSFKHVIRAQVYVEEVPWKRFEKNGVKHVHAFIYTPTGTHFCEVEQIRNGPPVIHSGIKDLKVLKTTQSGFEGFIKDQFTTLPEVKDRCFATQVYCKWRYHQGRDVDFEATWDTVRSIVLQKFAGPYDKGEYSPSVQKTLYDIQVLTLGQVPEIEDMEISLPNIHYLNIDMSKMGLINKEEVLLPLDNPYGKITGTVKRKLSSRL","sUA < 6 mg/dL, n (%)",[1],11 (100%)
same,"sUA Change from Baseline, Mean (SD)",[1],−8.97 (2.810) mg/dL
same,"sUA Change from Baseline, Median",[1],-8.80 mg/dL
same,"sUA Observed, Mean (SD)",[1],0.30 (0.000) mg/dL
same,"sUA Observed, Median",[1],0.30 mg/dL
same,"sUA < 6 mg/dL, %",[2],(100%)
same,"sUA Change from Baseline, Mean",[2],-9.11 mg/dL
same,"sUA Change from Baseline, Median",[2],-8.95 mg/dL
same,"sUA Observed, Mean",[2],0.30 mg/dL
same,"sUA Observed, Median",[2],0.30 mg/dL
same,"sUA < 6 mg/dL, n (%)",[3],8 (100%)
same,"sUA Change from Baseline, Mean (SD)",[3],−9.11 (3.293) mg/dL
same,"sUA Change from Baseline, Median",[3],-8.95 mg/dL
same,"sUA Observed, Mean (SD)",[3],0.30 (0.000) mg/dL
same,"sUA Observed, Median",[3],0.30 mg/dL
same,"sUA < 6 mg/dL, %",[4],(100%)
same,"sUA Change from Baseline, Mean",[4],-9.11 mg/dL
same,"sUA Change from Baseline, Median",[4],-8.95 mg/dL
same,"sUA Observed, Mean",[4],0.30 mg/dL
same,"sUA Observed, Median",[4],0.30 mg/dL
same,"sUA < 6 mg/dL, n (%)",[5],8 (100%)
same,"sUA Change from Baseline, Mean (SD)",[5],−9.11 (3.293) mg/dL
same,"sUA Change from Baseline, Median",[5],-8.95 mg/dL
same,"sUA Observed, Mean (SD)",[5],0.30 (0.000) mg/dL
same,"sUA Observed, Median",[5],0.30 mg/dL
same,"sUA < 6 mg/dL, %",[6],(100%)
same,"sUA Change from Baseline, Mean",[6],-9.11 mg/dL
same,"sUA Change from Baseline, Median",[6],-8.95 mg/dL
same,"sUA Observed, Mean",[6],0.30 mg/dL
same,"sUA Observed, Median",[6],0.30 mg/dL
same,"sUA < 6 mg/dL, n (%)",[7],8 (100%)
same,"sUA Change from Baseline, Mean (SD)",[7],−9.11 (3.293) mg/dL
same,"sUA Change from Baseline, Median",[7],-8.95 mg/dL
same,"sUA Observed, Mean (SD)",[7],0.30 (0.000) mg/dL
same,"sUA Observed, Median",[7],0.30 mg/dL
same,"sUA < 6 mg/dL, %",[8],(100%)
same,"sUA Change from Baseline, Mean",[8],-9.11 mg/dL
same,"sUA Change from Baseline, Median",[8],-8.95 mg/dL
same,"sUA Observed, Mean",[8],0.30 mg/dL
same,"sUA Observed, Median",[8],0.30 mg/dL
same,"sUA < 6 mg/dL, n (%)",[9],8 (100%)
same,"sUA Change from Baseline, Mean (SD)",[9],−9.11 (3.293) mg/dL
same,"sUA Change from Baseline, Median",[9],-8.95 mg/dL
same,"sUA Observed, Mean (SD)",[9],0.30 (0.000) mg/dL
same,"sUA Observed, Median",[9],0.30 mg/dL
same,"sUA < 6 mg/dL, %",[10],(100%)
same,"sUA Change from Baseline, Mean",[10],-8.99 mg/dL
same,"sUA Change from Baseline, Median",[10],-8.95 mg/dL
same,"sUA Observed, Mean",[10],0.30 mg/dL
same,"sUA Observed, Median",[10],0.30 mg/dL
same,"sUA < 6 mg/dL, n (%)",[11],10 (100%)
same,"sUA Change from Baseline, Mean (SD)",[11],−8.99 (2.961) mg/dL
same,"sUA Change from Baseline, Median",[11],-8.95 mg/dL
same,"sUA Observed, Mean (SD)",[11],0.30 (0.000) mg/dL
same,"sUA Observed, Median",[11],0.30 mg/dL
same,"sUA < 6 mg/dL, %",[12],(100%)
same,"sUA Change from Baseline, Mean",[12],-9.11 mg/dL
same,"sUA Change from Baseline, Median",[12],-8.95 mg/dL
same,"sUA Observed, Mean",[12],0.30 mg/dL
same,"sUA Observed, Median",[12],0.30 mg/dL
same,"sUA < 6 mg/dL, n (%)",[13],8 (100%)
same,"sUA Change from Baseline, Mean (SD)",[13],−9.11 (3.293) mg/dL
same,"sUA Change from Baseline, Median",[13],-8.95 mg/dL
same,"sUA Observed, Mean (SD)",[13],0.30 (0.000) mg/dL
same,"sUA Observed, Median",[13],0.30 mg/dL
